Sequences and labels used below:
B1: MCOLN1 (parent)
chain: EEEDLRRRLKYFFMSPCDKFRAKG
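Also: lentivirally expressed fusions sorted by FACS into six bins by GFP to DsRed ratio, PSI derived from sequencing read proportions per bin multiplied by bin number.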

This data set covers variants of B1. As to the kind of experiment: protein stability index of a GFP-peptide fusion (GPS, HEK-293T) (PSI 1-6); higher = more stable. The conditions noted are these: c terminus: a fixed tail appended.
As for EEEDRRRRLKYFFMSPCDKFRAKG, the protein stability index stood at 3.72.
The value for EEEDNRRRLKYFFMSPCDKFRAKG was 3.51; that for EEEDTRRRLKYFFMSPCDKFRAKG was 3.65; that for EEEDKRRRLKYFFMSPCDKFRAKG was 3.2.
Turning to EEEDGRRRLKYFFMSPCDKFRAKG, the protein stability index came out at 3.05.
The value for EEEDFRRRLKYFFMSPCDKFRAKG was 3.09.
The value for EEEDIRRRLKYFFMSPCDKFRAKG was 1.92; that for EEEDHRRRLKYFFMSPCDKFRAKG was 3.31; that for EEEDLRRRLKYFFMSPCDKFRTKG was 2.19.
On to EEEDLRRRLKYFFMSPCDKFRLKG, for which the protein stability index came out at 1.85.
The value for EEEDLRRRLKYFFMSPCDKFRSKG was 2.27; that for EEEDLRRRLKYFFMSPCDKFRRKG was 1.95; that for EEEDLRRRLKYFFMSPCDKFRHKG was 2.52.
The value for EEEDLRRRLKYFFMSPCDKFRDKG was 2.64; that for EEEDLRRRLKYFFMSPCDKFRYKG was 1.88; that for EEEDLRRRLKYFFMSPCDKFRWKG was 1.36.
With EEEDLRRRLKYFFMSPCDKFRFKG, the protein stability index came to 2.29.
The value for EEEDLRRRLKYFFMSPCDKFRKKG was 2.5.
Next, EEEDLRRRLKYFLMSPCDKFRAKG: 3.2; EEEDLRRRLKYFEMSPCDKFRAKG: 3.74.
Next, EEEDLRRRLKYFNMSPCDKFRAKG: 3.77.
As to EEEDLRRRLKYFSMSPCDKFRAKG, the protein stability index stood at 3.37.
Next, EEEDLRRRLKYFAMSPCDKFRAKG: 3.88; EEEDLRRRLKYFPMSPCDKFRAKG: 3.97; EEEDLRRRLKYFDMSPCDKFRAKG: 3.22.
In the case of EEEFLRRRLKYFFMSPCDKFRAKG, the protein stability index amounted to 1.42.
In the case of EEETLRRRLKYFFMSPCDKFRAKG, the protein stability index amounted to 2.49.
The value for EEECLRRRLKYFFMSPCDKFRAKG was 1.8.
Next, EEEYLRRRLKYFFMSPCDKFRAKG: 2.18.
The value for EEEALRRRLKYFFMSPCDKFRAKG was 1.13.
For the variant EEESLRRRLKYFFMSPCDKFRAKG, the protein stability index is 1.42.
The value for EEEQLRRRLKYFFMSPCDKFRAKG was 1.57; that for EEEDLRRRNKYFFMSPCDKFRAKG was 3.5.
The value for EEEDLRRRMKYFFMSPCDKFRAKG was 3.27; that for EEEDLRRRFKYFFMSPCDKFRAKG was 2.96; that for EEEDLRRRHKYFFMSPCDKFRAKG was 3.32.
Next, EEEDLRRRDKYFFMSPCDKFRAKG: 4.1; EEEDLRRRGKYFFMSPCDKFRAKG: 3.64; EEEDLRRRTKYFFMSPCDKFRAKG: 3.33.
Turning to EEEDLRRRWKYFFMSPCDKFRAKG, the protein stability index was 2.32.
The value for EEEDLRRRSKYFFMSPCDKFRAKG was 3.91; that for EEEDLRRRLKYFFASPCDKFRAKG was 3.27; that for EEEDLRRRLKYFFSSPCDKFRAKG was 2.96.
The value for EEEDLRRRLKYFFYSPCDKFRAKG was 2.23; that for EEEDLRRRLKYFFDSPCDKFRAKG was 3.23; that for EEEDLRRRLKYFFTSPCDKFRAKG was 2.79.
The value for EEEDLRRRLKYFFGSPCDKFRAKG was 3.56.
Regarding EEEDLRRRLKYFFHSPCDKFRAKG, the protein stability index turned out to be 2.59.
The value for EEEDLRRRLKYFFESPCDKFRAKG was 2.65; that for EEEDLRRRLKYFFCSPCDKFRAKG was 2.24; that for EEEDLRRRLKYFFFSPCDKFRAKG was 2.83.
Next, EEEDLRRRLKYFFLSPCDKFRAKG: 2.14; EEEDLRRRLKYFFKSPCDKFRAKG: 3.14; EEEDLRRRLKEFFMSPCDKFRAKG: 3.73.
Take EEEDLRRRLKHFFMSPCDKFRAKG: the protein stability index stood at 2.46.
In the case of EEEDLRRRLKVFFMSPCDKFRAKG, the protein stability index is 2.93.
Next, EEEDLRRRLKAFFMSPCDKFRAKG: 2.9; EEEDLRRRLKGFFMSPCDKFRAKG: 3.2; EEEDLRRRLKMFFMSPCDKFRAKG: 2.79.
Consider EEEDLRRRLKWFFMSPCDKFRAKG, for which the protein stability index was determined as 1.42.
The value for EEEDLRRRLKDFFMSPCDKFRAKG was 2.87.
Take EEEDLRRRLKYFFMNPCDKFRAKG: the protein stability index was 2.62.
The value for EEEDLRRRLKYFFMMPCDKFRAKG was 1.94; that for EEEDLRRRLKYFFMCPCDKFRAKG was 1.66.
Turning to EEEDLRRRLKYFFMWPCDKFRAKG, the protein stability index amounted to 2.49.
As to EEEDLRRRLKYFFMYPCDKFRAKG, the protein stability index is 2.62.
The value for EEEDLRRRLKYFFMGPCDKFRAKG was 2.77.
With EEEDLRRRLKYFFMFPCDKFRAKG, the protein stability index came out at 2.26.
The value for EEEDLRRRLKYFFMHPCDKFRAKG was 2.79; that for EEEDLRRRLKYFFMDPCDKFRAKG was 3.4.
Next, EEEDLRRRLKYFFMQPCDKFRAKG: 2.84; EEEDLRRRLKYFFMSPCDKFTAKG: 3.05.
The value for EEEDLRRRLKYFFMSPCDKFMAKG was 2.72; that for EEEDLRRRLKYFFMSPCDKFKAKG was 2.93.
For EEEDLRRRLKYFFMSPCDKFAAKG, the protein stability index stood at 2.52.
Turning to EEEDLRRRLKYFFMSPCDKFIAKG, the protein stability index came out at 2.51.
The value for EEEDLRRRLKYFFMSPCDKFFAKG was 2.4.
The value for EEEDLRRRLKYFFMSPCDKFYAKG was 2.54.
The value for EEEDLRRRLKYFFMSPCDKFGAKG was 3.01; that for EEEDLRRRLKYFFMSPCDHFRAKG was 2.65; that for EEEDLRRRLKYFFMSPCDTFRAKG was 3.01.
As to EEEDLRRRLKYFFMSPCDEFRAKG, the protein stability index was 2.94.
The value for EEEDLRRRLKYFFMSPCDVFRAKG was 2.51.
Next, EEEDLRRRLKYFFMSPCDIFRAKG: 1.74; EEEDLRRRLHYFFMSPCDKFRAKG: 2.11.
Next, EEEDLRRRLVYFFMSPCDKFRAKG: 2.32.
Consider EEEDLRRRLLYFFMSPCDKFRAKG, for which the protein stability index turned out to be 2.97.
For EEEDLRRRLPYFFMSPCDKFRAKG, the protein stability index came out at 2.79.
The value for EEEDLRRRLIYFFMSPCDKFRAKG was 1.62; that for EEEDLRRRLSYFFMSPCDKFRAKG was 2.3; that for EEEDLRRRLQYFFMSPCDKFRAKG was 2.26.
As for EEEDLRRRLYYFFMSPCDKFRAKG, the protein stability index is 1.67.
For the variant EEEDLRRRLEYFFMSPCDKFRAKG, the protein stability index was 2.67.
Next, EEEDLRRRLAYFFMSPCDKFRAKG: 2.15.

The values are drawn from the supplement of paper PMC10567573.
